Laboratory results as given in US20260242735A1 (UNIVERSIT T BASEL, published 2026).

Legend:
Test in all cases: alanine scan, flow cytometry, HEK293-T;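 note: antibody binding to each alanine-substituted CD33 mutant expressed transiently in HEK293-T, read as fluorescence minus background, mean of duplicates, relative to wild-type CD33 set as 100%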
[1] = molecular target: human CD33 W60A (human, UniProt P20138 18-364)
[2] = molecular target: human CD33 N113A (human, UniProt P20138 18-364)
[3] = molecular target: human CD33 P48A (human, UniProt P20138 18-364)
[4] = molecular target: human CD33 R110A (human, UniProt P20138 18-364)
[5] = molecular target: human CD33 R91A (human, UniProt P20138 18-364)
[6] = molecular target: human CD33 A65S (human, UniProt P20138 18-364)
[7] = molecular target: human CD33 H57A (human, UniProt P20138 18-364)
[8] = molecular target: human CD33 F90A (human, UniProt P20138 18-364)
[9] = molecular target: human CD33 A108S (human, UniProt P20138 18-364)
[10] = molecular target: human CD33 E63A (human, UniProt P20138 18-364)
[11] = molecular target: human CD33 V106A (human, UniProt P20138 18-364)
[12] = molecular target: human CD33 A74S (human, UniProt P20138 18-364)
[13] = molecular target: human CD33 V82A (human, UniProt P20138 18-364)
[14] = molecular target: human CD33 P55A (human, UniProt P20138 18-364)
[15] = molecular target: human CD33 N100A (human, UniProt P20138 18-364)
[16] = molecular target: human CD33 S54A (human, UniProt P20138 18-364)
[17] = molecular target: human CD33 Q80A (human, UniProt P20138 18-364)
[18] = molecular target: human CD33 S71A (human, UniProt P20138 18-364)
[19] = molecular target: human CD33 V56A (human, UniProt P20138 18-364)
[20] = molecular target: human CD33 K77A (human, UniProt P20138 18-364)
[21] = molecular target: T1, human CD33 L141A (human, UniProt P20138 18-364)
T1 construct: alanine scan clone, transfected HEK293-T

[22] = molecular target: T2, human CD33 Q133A (human, UniProt P20138 18-364)
T2 construct: alanine scan clone, transfected HEK293-T

[23] = molecular target: T3, human CD33 A182S (human, UniProt P20138 18-364)
T3 construct: alanine scan clone, transfected HEK293-T

[24] = molecular target: T4, human CD33 H193A (human, UniProt P20138 18-364)
T4 construct: alanine scan clone, transfected HEK293-T

[25] = molecular target: T5, human CD33 L187A (human, UniProt P20138 18-364)
T5 construct: alanine scan clone, transfected HEK293-T

[26] = molecular target: T6, human CD33 K130A (human, UniProt P20138 18-364)
T6 construct: alanine scan clone, transfected HEK293-T

[27] = molecular target: T7, human CD33 H137A (human, UniProt P20138 18-364)
T7 construct: alanine scan clone, transfected HEK293-T

[28] = molecular target: T8, human CD33 L153A (human, UniProt P20138 18-364)
T8 construct: alanine scan clone, transfected HEK293-T

[29] = molecular target: T9, human CD33 P189A (human, UniProt P20138 18-364)
T9 construct: alanine scan clone, transfected HEK293-T

[30] = molecular target: T10, human CD33 N160A (human, UniProt P20138 18-364)
T10 construct: alanine scan clone, transfected HEK293-T

[31] = molecular target: T11, human CD33 T152A (human, UniProt P20138 18-364)
T11 construct: alanine scan clone, transfected HEK293-T

[32] = molecular target: T12, human CD33 E121A (human, UniProt P20138 18-364)
T12 construct: alanine scan clone, transfected HEK293-T

[33] = molecular target: T13, human CD33 T142A (human, UniProt P20138 18-364)
T13 construct: alanine scan clone, transfected HEK293-T

[34] = molecular target: T14, human CD33 P174A (human, UniProt P20138 18-364)
T14 construct: alanine scan clone, transfected HEK293-T

[35] = molecular target: T15, human CD33 P132A (human, UniProt P20138 18-364)
T15 construct: alanine scan clone, transfected HEK293-T

[36] = molecular target: T16, human CD33 S195A (human, UniProt P20138 18-364)
T16 construct: alanine scan clone, transfected HEK293-T
T16 sequence (P20138 18-364 S195A limits assumed): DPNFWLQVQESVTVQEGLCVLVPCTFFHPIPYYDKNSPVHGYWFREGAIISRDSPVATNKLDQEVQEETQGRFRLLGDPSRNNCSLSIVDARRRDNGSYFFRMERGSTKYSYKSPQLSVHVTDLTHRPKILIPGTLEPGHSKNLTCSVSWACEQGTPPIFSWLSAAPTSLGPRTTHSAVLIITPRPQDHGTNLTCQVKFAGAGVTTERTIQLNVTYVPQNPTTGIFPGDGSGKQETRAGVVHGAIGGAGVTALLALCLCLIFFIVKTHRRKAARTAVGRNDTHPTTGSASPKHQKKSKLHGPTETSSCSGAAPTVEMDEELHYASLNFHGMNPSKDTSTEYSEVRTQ

T2 sequence (P20138 18-364 Q133A limits assumed): as the sequence (P20138 18-364 S195A limits assumed) above, with Q116A, A178S counted along it
T3 sequence (P20138 18-364 A182S limits assumed): as the sequence (P20138 18-364 S195A limits assumed) above, with A165S, A178S counted along it
Chain of human CD33 V56A (P20138 18-364 V56A limits assumed): as the sequence (P20138 18-364 S195A limits assumed) above, with V39A, A178S counted along it
T15 sequence (P20138 18-364 P132A limits assumed): as the sequence (P20138 18-364 S195A limits assumed) above, with P115A, A178S counted along it
Chain of human CD33 N113A (P20138 18-364 N113A limits assumed): as the sequence (P20138 18-364 S195A limits assumed) above, with N96A, A178S counted along it
Chain of human CD33 S54A (P20138 18-364 S54A limits assumed): as the sequence (P20138 18-364 S195A limits assumed) above, with S37A, A178S counted along it
Chain of human CD33 F90A (P20138 18-364 F90A limits assumed): as the sequence (P20138 18-364 S195A limits assumed) above, with F73A, A178S counted along it
Chain of human CD33 A65S (P20138 18-364 A65S limits assumed): as the sequence (P20138 18-364 S195A limits assumed) above, with A48S, A178S counted along it
T8 sequence (P20138 18-364 L153A limits assumed): as the sequence (P20138 18-364 S195A limits assumed) above, with L136A, A178S counted along it
Chain of human CD33 V106A (P20138 18-364 V106A limits assumed): as the sequence (P20138 18-364 S195A limits assumed) above, with V89A, A178S counted along it
T6 sequence (P20138 18-364 K130A limits assumed): as the sequence (P20138 18-364 S195A limits assumed) above, with K113A, A178S counted along it
T11 sequence (P20138 18-364 T152A limits assumed): as the sequence (P20138 18-364 S195A limits assumed) above, with T135A, A178S counted along it
Chain of human CD33 K77A (P20138 18-364 K77A limits assumed): as the sequence (P20138 18-364 S195A limits assumed) above, with K60A, A178S counted along it
T5 sequence (P20138 18-364 L187A limits assumed): as the sequence (P20138 18-364 S195A limits assumed) above, with L170A, A178S counted along it
Chain of human CD33 S71A (P20138 18-364 S71A limits assumed): as the sequence (P20138 18-364 S195A limits assumed) above, with S54A, A178S counted along it
T12 sequence (P20138 18-364 E121A limits assumed): as the sequence (P20138 18-364 S195A limits assumed) above, with E104A, A178S counted along it
T4 sequence (P20138 18-364 H193A limits assumed): as the sequence (P20138 18-364 S195A limits assumed) above, with H176A, A178S counted along it
Chain of human CD33 N100A (P20138 18-364 N100A limits assumed): as the sequence (P20138 18-364 S195A limits assumed) above, with N83A, A178S counted along it
Chain of human CD33 P48A (P20138 18-364 P48A limits assumed): as the sequence (P20138 18-364 S195A limits assumed) above, with P31A, A178S counted along it
T1 sequence (P20138 18-364 L141A limits assumed): as the sequence (P20138 18-364 S195A limits assumed) above, with L124A, A178S counted along it
Chain of human CD33 R110A (P20138 18-364 R110A limits assumed): as the sequence (P20138 18-364 S195A limits assumed) above, with R93A, A178S counted along it
Chain of human CD33 E63A (P20138 18-364 E63A limits assumed): as the sequence (P20138 18-364 S195A limits assumed) above, with E46A, A178S counted along it
Chain of human CD33 V82A (P20138 18-364 V82A limits assumed): as the sequence (P20138 18-364 S195A limits assumed) above, with V65A, A178S counted along it
T9 sequence (P20138 18-364 P189A limits assumed): as the sequence (P20138 18-364 S195A limits assumed) above, with P172A, A178S counted along it
Chain of human CD33 A74S (P20138 18-364 A74S limits assumed): as the sequence (P20138 18-364 S195A limits assumed) above, with A57S, A178S counted along it
T10 sequence (P20138 18-364 N160A limits assumed): as the sequence (P20138 18-364 S195A limits assumed) above, with N143A, A178S counted along it
Chain of human CD33 H57A (P20138 18-364 H57A limits assumed): as the sequence (P20138 18-364 S195A limits assumed) above, with H40A, A178S counted along it
Chain of human CD33 W60A (P20138 18-364 W60A limits assumed): as the sequence (P20138 18-364 S195A limits assumed) above, with W43A, A178S counted along it
Chain of human CD33 R91A (P20138 18-364 R91A limits assumed): as the sequence (P20138 18-364 S195A limits assumed) above, with R74A, A178S counted along it
T14 sequence (P20138 18-364 P174A limits assumed): as the sequence (P20138 18-364 S195A limits assumed) above, with P157A, A178S counted along it
T13 sequence (P20138 18-364 T142A limits assumed): as the sequence (P20138 18-364 S195A limits assumed) above, with T125A, A178S counted along it
T7 sequence (P20138 18-364 H137A limits assumed): as the sequence (P20138 18-364 S195A limits assumed) above, with H120A, A178S counted along it
Chain of human CD33 Q80A (P20138 18-364 Q80A limits assumed): as the sequence (P20138 18-364 S195A limits assumed) above, with Q63A, A178S counted along it
Chain of human CD33 P55A (P20138 18-364 P55A limits assumed): as the sequence (P20138 18-364 S195A limits assumed) above, with P38A, A178S counted along it
Chain of human CD33 A108S (P20138 18-364 A108S limits assumed): as the sequence (P20138 18-364 S195A limits assumed) above, with A91S, A178S counted along it

B1: Refmab #5 (antibody, V domains shown)
VH: QVQLVQSGAEVKKPGASVKVSCKASGYTFTNYDINWVRQAPGQGLEWIGWIYPGDGSTKYNEKFKAKATLTADTSTSTAYMELRSLRSDDTAVYYCASGYEDAMDYWGQGTTVTVSS
VL: DIQMTQSPSSLSASVGDRVTINCKASQDINSYLSWFQQKPGKAPKTLIYRANRLVDGVPSRFSGSGSGQDYTLTISSLQPEDFATYYCLQYDEFPLTFGGGTKVEIK
notes: Full-length format is human IgG1 Fc silent (PG-LALA); also made as Fab; The alanine scan used IgG or Fab
- Mean % WT Binding [1]: 35.9 % WT binding
- Mean % WT Binding [2]: 64 % WT binding
- Mean % WT Binding [3]: 92.8 % WT binding
- Mean % WT Binding [4]: 125 % WT binding
- Mean % WT Binding [5]: 101 % WT binding
- Mean % WT Binding [6]: 175 % WT binding
- Mean % WT Binding [7]: 121 % WT binding
- Mean % WT Binding [8]: 123 % WT binding
- Mean % WT Binding [9]: 105 % WT binding
- Mean % WT Binding [10]: 140 % WT binding
- Mean % WT Binding [11]: 106 % WT binding
- Mean % WT Binding [12]: 99 % WT binding
- Mean % WT Binding [13]: 122 % WT binding
- Mean % WT Binding [14]: 118 % WT binding
- Mean % WT Binding [15]: 165 % WT binding
- Mean % WT Binding [16]: 146 % WT binding
- Mean % WT Binding [17]: 151 % WT binding
- Mean % WT Binding [18]: 150 % WT binding
- Mean % WT Binding [19]: 93 % WT binding
- Mean % WT Binding [20]: 124 % WT binding

B2: Refmab #5 (antibody, V domains shown)
VH: B1 VH
VL: B1 VL
notes: The alanine scan used IgG or Fab
- Mean % WT Binding [21]: 94.5 % WT binding
- Mean % WT Binding [22]: 112 % WT binding
- Mean % WT Binding [23]: 103 % WT binding
- Mean % WT Binding [24]: 119 % WT binding
- Mean % WT Binding [25]: 144 % WT binding
- Mean % WT Binding [26]: 271 % WT binding
- Mean % WT Binding [27]: 120 % WT binding
- Mean % WT Binding [28]: 101 % WT binding
- Mean % WT Binding [29]: 115 % WT binding
- Mean % WT Binding [30]: 110 % WT binding
- Mean % WT Binding [31]: 137 % WT binding
- Mean % WT Binding [32]: 105 % WT binding
- Mean % WT Binding [33]: 101 % WT binding
- Mean % WT Binding [34]: 118 % WT binding
- Mean % WT Binding [35]: 97.3 % WT binding
- Mean % WT Binding [36]: 117 % WT binding

B3: Refmab #6 (antibody, V domains shown)
VH: QVQLQQPGAEVVKPGASVKMSCKASGYTFTSYYIHWIKQTPGQGLEWVGVIYPGNDDISYNQKFQGKATLTADKSSTTAYMQLSSLTSEDSAVYYCAREVRLRYFDVWGQGTTVTVSS
VL: EIVLTQSPGSLAVSPGERVTMSCKSSQSVFFSSSQKNYLAWYQQIPGQSPRLLIYWASTRESGVPDRFTGSGSGTDFTLTISSVQPEDLAIYYCHQYLSSRTFGQGTKLEIK
notes: as for B1
- Mean % WT Binding [1]: 2.1 % WT binding
- Mean % WT Binding [2]: 89.7 % WT binding
- Mean % WT Binding [3]: 104 % WT binding
- Mean % WT Binding [4]: 98.4 % WT binding
- Mean % WT Binding [5]: 91.4 % WT binding
- Mean % WT Binding [6]: 92.3 % WT binding
- Mean % WT Binding [7]: 63 % WT binding
- Mean % WT Binding [8]: 71.1 % WT binding
- Mean % WT Binding [9]: 78.4 % WT binding
- Mean % WT Binding [10]: 90.9 % WT binding
- Mean % WT Binding [11]: 125 % WT binding
- Mean % WT Binding [12]: 94.9 % WT binding
- Mean % WT Binding [13]: 110 % WT binding
- Mean % WT Binding [14]: 101 % WT binding
- Mean % WT Binding [15]: 83.9 % WT binding
- Mean % WT Binding [16]: 83.6 % WT binding
- Mean % WT Binding [17]: 102 % WT binding
- Mean % WT Binding [18]: 99.4 % WT binding
- Mean % WT Binding [19]: 113 % WT binding
- Mean % WT Binding [20]: 79.9 % WT binding

B4: Refmab #6 (antibody, V domains shown)
VH: B3 VH
VL: B3 VL
notes: as for B2
- Mean % WT Binding [21]: 97.5 % WT binding
- Mean % WT Binding [22]: 88.3 % WT binding
- Mean % WT Binding [23]: 93.9 % WT binding
- Mean % WT Binding [24]: 100 % WT binding
- Mean % WT Binding [25]: 119 % WT binding
- Mean % WT Binding [26]: 119 % WT binding
- Mean % WT Binding [27]: 117 % WT binding
- Mean % WT Binding [28]: 94.3 % WT binding
- Mean % WT Binding [29]: 103 % WT binding
- Mean % WT Binding [30]: 106 % WT binding
- Mean % WT Binding [31]: 92.7 % WT binding
- Mean % WT Binding [32]: 90.8 % WT binding
- Mean % WT Binding [33]: 91.6 % WT binding
- Mean % WT Binding [34]: 103 % WT binding
- Mean % WT Binding [35]: 3.6 % WT binding
- Mean % WT Binding [36]: 113 % WT binding
